Patent publication US20170204158A1 (Regeneron, published 2017)

What was measured:
[1] = target: T1, monkey IL-33 expressed with C-terminal hexahistidine tag (MfIL-33-6His) (cynomolgus monkey (M. fascicularis)); experiment: cell-based or functional assay
T1 chain: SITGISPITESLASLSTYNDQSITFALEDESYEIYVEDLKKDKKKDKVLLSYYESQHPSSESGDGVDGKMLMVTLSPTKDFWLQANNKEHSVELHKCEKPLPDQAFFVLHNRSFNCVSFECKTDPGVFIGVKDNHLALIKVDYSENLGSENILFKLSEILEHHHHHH

[2] = target: T2, human IL-33 (R&D Systems, # 3625-IL-010/CF) (human, UniProt O95760 112-270, biotinylated in the blocking ELISA of Example 3 (sites not given)); experiment: cell-based or functional assay
T2 sequence (looked up): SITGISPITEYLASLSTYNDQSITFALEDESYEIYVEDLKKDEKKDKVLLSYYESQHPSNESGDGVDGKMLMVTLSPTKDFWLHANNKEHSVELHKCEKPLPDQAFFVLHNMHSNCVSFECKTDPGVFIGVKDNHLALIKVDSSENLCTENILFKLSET

[3] = target: T2, human IL-33 (R&D Systems, # …); experiment: competition ELISA; antagonist pre-mixed with 20 pM biotin-hIL-33, binding to plate-coated human ST2-Fc; highest concentration tested
Procedure: The ability of exemplary IL-33 antagonists of the invention to block human IL-33 (hIL-33) binding to the human ST2 receptor was measured using a competition sandwich ELISA. A portion of human ST2 protein ecto domain that was expressed with a C-terminal mouse Fc tag (SEQ ID NO:2) was coated at a concentration of 1 μg/mL in PBS buffer on a 96-well microtiter plate overnight at 4° C. […] Biotinylated hIL-33 protein (R&D systems, #3625-IL/CF) (biot-hIL-33) was added to achieve a constant final concentration of 20 pM to serial dilutions of IL-33 antagonists ranging from 0 to 100 nM. The mixture was incubated for 1 hour at room temperature (RT) before transfer to the hST2-hFc coated microtiter plates. After incubation for 1 hour at RT, the wells were then washed, and plate-bound biot-hIL-33 was detected with HRP-conjugated streptavidin (Thermo Scientific, # N200). All samples were developed with a TMB solution (BD biosciences, # 51-2607KC) to produce a colorimetric reaction and then quenched by acidification with 1M sulfuric acid before measuring absorbance at 450 nm on a Victor X5 plate reader (PerkinElmer). Data analysis was performed using a sigmoidal dose-response model within Prism™ software. […] Maximum blocking values represent the ability of the antagonists to block IL-33 binding relative to baseline. The absorbance measured at the constant amount of hIL-33 on the dose curve was defined as 0% blocking and the absorbance with no added IL-33 was defined as 100% blocking. The absorbance values of the wells containing the highest concentration tested for each antagonist were used to determine the maximum blocking percent.

[4] = target: T2, human IL-33 (R&D Systems, # …); experiment: cell-based or functional assay; remark: listed apart in the source
[5] = target: T2, human IL-33 (R&D Systems, # …); experiment: SPR (Biacore T-200), 37 C; Fc fusion captured by anti-Fc antibody, IL-33 injected
Procedure: (§1) The Biacore sensor surface was first derivatized by amine coupling a polyclonal rabbit anti-mouse antibody (GE, # BR-1008-38) or with a monoclonal mouse anti-human Fc antibody (GE, # BR-1008-39) to capture IL-33 Trap and receptor proteins with a C-terminal mouse IgG2a Fc tag or a C-terminal human IgG1 Fc tag, respectively. Kinetic experiments were carried out in 0.01 M HEPES pH 7.4, 0.15 M NaCl, 3 mM EDTA, and 0.005% v/v Surfactant Tween-20 (HBST running buffer). Different concentrations of human IL-33, mouse IL-33 or MfIL-33-6His prepared in HBST running buffer (ranging from 60 nM to 27.4 pM, 3-fold dilutions, for Trap proteins and ranging from 60 nM to 0.25 nM, 3-fold dilutions, for ST2 receptor proteins) were injected over the captured IL-33 Trap and receptor protein surfaces at a flow rate of 50 μL/minute. Association of different IL-33 proteins to the different capture surfaces was monitored for 7 minutes for Trap proteins or 4 minutes for ST2 receptor proteins and their dissociation in HBST running buffer was monitored for 14 minutes for Trap proteins or 8 minutes for ST2 receptor proteins. Kinetic association (ka) and dissociation (kd) rate constants were determined by fitting the real-time binding sensorgrams to a 1:1 binding model using Scrubber 2.0c curve-fitting software. Binding dissociation equilibrium constants (KD) and dissociative half-lives (t½) were calculated from the kinetic rate constants as: […]

[6] = target: T2, human IL-33 (R&D Systems, # …); experiment: cell-based or functional assay; remark: listed apart in the source
[7] = target: T1, monkey IL-33 expressed with C-terminal …; experiment: SPR (Biacore T-200), 25 C; Fc fusion captured by anti-Fc antibody, MfIL-33-6His injected
Procedure: as §1

IC50 (M), inhibition of 3 pM monkey IL-33 activation of HEK293/hST2/NFkB-luciferase cells [1]: 4.7e-11 M | IC50 (M), inhibition of 5 pM monkey IL-33 activation of HEK293/hST2/NFkB-luciferase cells [1]: 1.3e-12 M | IC50 (M), inhibition of 5 pM human IL-33 activation of HEK293/hST2/NFkB-luciferase cells [2]: 1.3e-12 M | IC50 (M), inhibition of 20 pM human IL-33 activation of HEK293/hST2/NFkB-luciferase cells [2]: 1.3e-11 M | % Maximum blocking [3]: 97% | IC50 (M), blocking of IL-33 induced activation of human basophils (CD203c), donor 655675 [4]: 1.9e-11 M | IC50 (M), blocking of IL-33 induced activation of human basophils (CD203c), donor 655676 [4]: 1.51e-11 M | IC50 (M), blocking of IL-33 induced activation of human basophils (CD203c), donor 655685 [4]: 2.3e-11 M | IC50 (M), blocking of IL-33 induced activation of human basophils (CD203c), donor 655686 [4]: 2.09e-11 M | IC50 (M), blocking of IL-33 induced activation of human basophils (CD203c), donor 698846 [4]: 3.6e-11 M | IC50 (M), blocking of IL-33 induced activation of human basophils (CD203c), donor 698847 [4]: 1.11e-11 M | 60 nM Human IL-33 Bound (RU) [5]: 28 RU | Kd [5]: 0.00111 nM | koff [5]: 2.02e-05 s⁻¹ | kon [5]: 1.82e+07 M⁻¹ s⁻¹ | t1/2 [5]: 9.55 h | IC50 (M), blocking of IL-33 induced IFN-gamma release from human PBMC, donor 634966 [6]: 2.13e-12 M | IC50 (M), blocking of IL-33 induced IFN-gamma release from human PBMC, donor 655681 [6]: 4.59e-11 M | IC50 (M), blocking of IL-33 induced IFN-gamma release from human PBMC, donor 655682 [6]: 3.97e-12 M | IC50 (M), blocking of IL-33 induced IFN-gamma release from human PBMC, donor 655684 [6]: 6.79e-11 M | IC50 (M), blocking of IL-33 induced IFN-gamma release from human PBMC, donor 698842 [6]: 7.39e-11 M | IC50 (M), blocking of IL-33 induced IFN-gamma release from human PBMC, donor 698843 [6]: 1.73e-11 M | IC50 (M), blocking of IL-33 induced IFN-gamma release from human PBMC, donor 727054 [6]: 3.34e-10 M | IC50 (M), blocking of IL-33 induced IFN-gamma release from human PBMC, donor 727055 [6]: 1.23e-10 M | 60 nM Monkey IL-33 Bound (RU) [7]: 28 RU | Kd [7]: 0.00313 nM | koff [7]: 4.09e-05 s⁻¹ | kon [7]: 1.31e+07 M⁻¹ s⁻¹ | t1/2 [7]: 4.7 h
B1: hST2-hIL1RAcP-mFc (Fc fusion)
chain: KFSKQSWGLENEALIVRCPRQGKPSYTVDWYYSQTNKSIPTQERNRVFASGQLLKFLPAAVADSGIYTCIVRSPTFNRTGYANVTIYKKQSDCNVPDYLMYSTVSGSEKNSKIYCPTIDLYNWTAPLEWFKNCQALQGSRYRAHKSFLVIDNVMTEDAGDYTCKFIHNENGANYSVTATRSFTVKDEQGFSLFPVIGAPAQNEIKEVEIGKNANLTCSACFGKGTQFLAAVLWQLNGTKITDFGEPRIQQEEGQNQSFSNGLACLDMVLRIADVKEEDLLLQYDCLALNLHGLRRHTVRLSRKNPIDHHSSERCDDWGLDTMRQIQVFEDEPARIKCPLFEHFLKFNYSTAHSAGLTLIWYWTRQDRDLEEPINFRLPENRISKEKDVLWFRPTLLNDTGNYTCMLRNTTYCSKVAFPLEVVQKDSCFNSPMKLPVHKLYIEYGIQRITCPNVDGYFPSSVKPTITWYMGCYKIQNFNNVIPEGMNLSFLIALISNNGNYTCVVTYPENGRTFHLTRTLTVKVVGSPKNAVPPVIHSPNDHVVYEKEPGEELLIPCTVYFSFLMDSRNEVWWTIDGKKPDDITIDVTINESISHSRTEDETRTQILSIKKVTSEDLKRSYVCHARSAKGEVAKAAKVKQKVPAPRYTVESGEPRGPTIKPCPPCKCPAPNLLGGPSVFIFPPKIKDVLMISLSPIVTCVVVDVSEDDPDVQISWFVNNVEVHTAQTQTHREDYNSTLRVVSALPIQHQDWMSGKEFKCKVNNKDLPAPIERTISKPKGSVRAPQVYVLPPPEEEMTKKQVTLTCMVTDFMPEDIYVEWTNNGKTELNYKNTEPVLDSDGSYFMYSKLRVEKKNWVERNSYSCSVVHEGLHNHHTTKSFSRTPGK
notes: also called third IL-33 antagonist; human IL-33 Trap
